In data set [1] the target is Tea1p fused to the DNA binding domain of GAL4 (pAS1) (Schizosaccharomyces pombe, UniProt P04386 1-147; P87061 1-1147). As to the kind of experiment: yeast two-hybrid (HIS3 and LACZ reporters). An excerpt:
(§1) The tea1 gene was fused to the DNA binding domain of GAL4 in a plasmid (pAS1) carrying the trp1 marker. The orb6 gene was fused to the DNA binding domain of GAL4 (pAS1-orb6) and to the GAL4 activator domain (pACT2-orb6). The cDNA library was cloned to the transcription activator domain of GAL4 in a plasmid (pACT) carrying the leu2 marker. Plasmids pAS1, pACT2, pSE1111 (pACT-SNF4), pSE1112 (pAS1-SNF1), pAS1-p53, pAS1-lamin and the S. pombe library prepared in phage λ vectors and plasmids pAS1-SNF1 and pAS1-lamin, both harbored in Y187 strain, were kindly provided by Dr. S. Elledge. The test for cell growth on medium lacking histidine, the beta-galactosidase activation assay and the mating test to detect interaction specificity were performed as described (14). After screening 2×10⁶ transformants, we found five proteins that interact with Orb6p and four that interact with Tea1p in this system, and that were identified multiple times in the screen. Clones containing bot1+ were isolated 22 times in the Orb6p screen and eight times in the Tea1p screen. All clones contained the full-length bot1 sequence, although they usually lacked the initial ATG codon. For beta-galactosidase activation, three independent transformants were assayed for each condition.
(§2) To identify novel components of the Orb6p pathway, a two-hybrid screen was performed to identify cDNAs encoding proteins that interact with Orb6p. One of these, isolated 22 times in this screen, was a novel protein that we named Bot1p. […] The specificity of the positive interaction between Orb6p and Bot1p in the two-hybrid system was controlled by cotransformation of pAS1-orb6 and pACT-bot1 independently with a number of control plasmids. Co-expression of SNF1p or SNF4p was used as positive controls. Orb6p was unable to support the activation of the LACZ-GAL4 and HIS3-GAL4 promoters when co-expressed with GAL4 activation domain fused to SNF4p, or with the GAL4 activation domain (GAD) alone. Bot1p was unable to support the activation of the LACZ-GAL4 and HIS3-GAL4 promoters when co-expressed with the GAL4 binding domain fused to p53, Cdc23p, GAL4 DNA binding domain (GBD) alone, or fused to SNF1p or Cdt1p.

Data set [2] deals with T1, Orb6p fused to the DNA binding domain of GAL4 (pAS1-orb6) (Schizosaccharomyces pombe, UniProt P04386 1-147; O13310 1-469, limits assumed). As to the kind of experiment: yeast two-hybrid (HIS3 and LACZ reporters).
Excerpt: as §1, §2

The target in data set [3] is T1, Orb6p fused to the DNA binding domain …. As to the kind of experiment: LACZ-GAL4 reporter in strain BY3161, control of the three-hybrid test.
Data set [4] has as its target T2, HA-tagged Cdc23p (pRep41-HA3cdc23) (fission yeast, UniProt O42709 1-593).
T2 construct: also called HA-Cdc23p; HA-Cdc23
T2 sequence (looked up): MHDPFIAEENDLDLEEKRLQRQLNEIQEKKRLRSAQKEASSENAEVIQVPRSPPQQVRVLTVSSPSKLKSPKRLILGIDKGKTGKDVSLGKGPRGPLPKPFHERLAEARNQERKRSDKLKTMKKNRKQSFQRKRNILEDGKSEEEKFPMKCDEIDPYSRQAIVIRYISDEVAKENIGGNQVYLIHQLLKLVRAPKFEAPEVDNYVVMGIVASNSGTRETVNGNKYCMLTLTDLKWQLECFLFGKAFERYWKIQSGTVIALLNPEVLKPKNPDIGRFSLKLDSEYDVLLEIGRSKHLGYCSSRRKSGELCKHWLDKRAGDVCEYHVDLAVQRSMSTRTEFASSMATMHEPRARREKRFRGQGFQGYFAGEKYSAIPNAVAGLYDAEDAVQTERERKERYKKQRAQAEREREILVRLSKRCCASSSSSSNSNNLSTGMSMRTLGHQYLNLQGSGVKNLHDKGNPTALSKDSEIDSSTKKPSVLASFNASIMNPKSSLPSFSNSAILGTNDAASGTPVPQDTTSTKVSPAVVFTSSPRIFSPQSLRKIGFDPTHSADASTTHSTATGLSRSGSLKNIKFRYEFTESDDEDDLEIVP
As to the kind of experiment: co-purification on glutathione resin from fission yeast extracts, co-expressed. As for the experimental part: (§3) Immunoblot analysis was performed using standard methodology. For co-purification experiments, ade6-704 ura4-D18 leu1-32 h-cells co-expressing HA-tagged Bot1p and GST-tagged Orb6p (FV17p), or cells co-expressing HA-tagged Bot1p and GST alone (FV16p) as a control were cultured, for 15 hr at 32° C. in the absence of thiamine. HA₃-bot1 was moderately expressed from an attenuated nmt1 promoter (10). GST-tagged fusions were constructed using the pESP plasmid (Qiagen), which also contains a nmt1 promoter. Cells were then re-suspended in HB buffer and broken using a FastPrep FP120 bead beater (Savant). Extracts were spun at 15K rpm for 15 min. GST-tagged Orb6 or GST alone was purified using glutathione beads (Molecular Probes).
Glutathione beads were washed three times in HB buffer and then eluted. […]
To confirm this interaction between Bot1p and Orb6p in fission yeast extracts, HA-Bot1p and GST-Orb6p were co-expressed in fission yeast cells, and GST-Orb6p was purified using glutathione-coupled resin. […] Furthermore, neither GST nor GST-Orb6p co-purified with HA-tagged Cdc23p, when co-expressed as an additional control for specificity.

Data set [5] deals with T3, HA-tagged Bot1p (HA3-bot1, pRep41-HA3bot1).
T3 chain: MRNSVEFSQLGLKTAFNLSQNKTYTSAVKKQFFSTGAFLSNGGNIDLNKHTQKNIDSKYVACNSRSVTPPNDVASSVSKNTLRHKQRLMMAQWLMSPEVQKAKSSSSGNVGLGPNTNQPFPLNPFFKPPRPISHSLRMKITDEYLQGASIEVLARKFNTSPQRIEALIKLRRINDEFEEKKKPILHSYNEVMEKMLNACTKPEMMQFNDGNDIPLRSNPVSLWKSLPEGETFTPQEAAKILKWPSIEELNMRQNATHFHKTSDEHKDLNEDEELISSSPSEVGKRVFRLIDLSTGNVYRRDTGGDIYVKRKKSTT

Data set [6] deals with T4, HA-tagged Tea1p (nmt1-HA3tea1) (Schizosaccharomyces pombe, UniProt P87061 1-1147).
T4 construct: also called HA-Tea1p
T4 sequence (looked up): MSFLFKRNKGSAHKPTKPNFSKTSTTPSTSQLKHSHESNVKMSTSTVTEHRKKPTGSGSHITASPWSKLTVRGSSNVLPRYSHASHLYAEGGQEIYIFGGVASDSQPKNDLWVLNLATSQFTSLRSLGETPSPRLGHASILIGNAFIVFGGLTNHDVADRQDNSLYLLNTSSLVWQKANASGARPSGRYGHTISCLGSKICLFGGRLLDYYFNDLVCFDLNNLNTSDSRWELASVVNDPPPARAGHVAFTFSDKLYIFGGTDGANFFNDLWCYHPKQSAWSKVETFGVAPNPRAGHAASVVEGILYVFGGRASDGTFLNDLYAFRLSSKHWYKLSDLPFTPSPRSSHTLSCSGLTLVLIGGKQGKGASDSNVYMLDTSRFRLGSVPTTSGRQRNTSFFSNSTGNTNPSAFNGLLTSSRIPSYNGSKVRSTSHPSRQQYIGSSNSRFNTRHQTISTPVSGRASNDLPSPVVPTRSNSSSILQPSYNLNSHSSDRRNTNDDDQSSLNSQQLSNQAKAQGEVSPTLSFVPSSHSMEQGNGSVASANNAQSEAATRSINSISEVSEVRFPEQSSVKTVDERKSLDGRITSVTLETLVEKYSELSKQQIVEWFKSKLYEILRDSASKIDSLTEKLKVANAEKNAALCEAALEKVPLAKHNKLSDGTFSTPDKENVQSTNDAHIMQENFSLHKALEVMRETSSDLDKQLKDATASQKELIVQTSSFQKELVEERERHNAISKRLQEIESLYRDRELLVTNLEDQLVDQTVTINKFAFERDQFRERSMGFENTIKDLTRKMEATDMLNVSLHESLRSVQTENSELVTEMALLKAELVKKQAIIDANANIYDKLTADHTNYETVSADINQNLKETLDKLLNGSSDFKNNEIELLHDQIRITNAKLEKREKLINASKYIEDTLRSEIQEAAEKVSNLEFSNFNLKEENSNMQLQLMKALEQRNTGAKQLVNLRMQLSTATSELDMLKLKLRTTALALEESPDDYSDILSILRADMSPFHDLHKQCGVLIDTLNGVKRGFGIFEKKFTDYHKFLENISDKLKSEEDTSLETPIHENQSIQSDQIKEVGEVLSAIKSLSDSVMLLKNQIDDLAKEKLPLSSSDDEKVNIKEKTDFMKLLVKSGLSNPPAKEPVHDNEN
As to the kind of experiment: glutathione beads carrying GST-Orb6p with co-purified HA-Bot1p, incubated with an extract containing HA-Tea1p. As for the experimental part:
as §3
Glutathione beads were washed three times in HB buffer and then eluted. The eluate was run on a 10% polyacrylamide gel, blotted on nitrocellulose, and probed with a primary anti-HA antibody (Covance) or, separately, with a primary anti-GST antibody (Molecular Probes) and with a horseradish peroxidase-conjugated secondary antibody (ECL, Amersham).
To investigate whether Bot1p is able to form a complex with Tea1p and Orb6p, we determined if these proteins co-immunoprecipitate in cell extracts, if they interact in the yeast two-hybrid system, and if they are able to associate in vitro. […]

B1: GAL4 activation domain (GAD) alone (other, UniProt P04386 768-881, looked up)
chain: ANFNQSGNIADSSLSFTFTNSSNGPNLITTQTNSQALSQPIASSNVHDNFMNNEITASKIDDGNNSKPLSPGWTDQTAYNAFGITTGMFNTTTMDDVYNYLFDDEDTPPNPKKE
notes: Two-hybrid negative control
With B1, the binding result in data set [1] and in data set [2] was “no binding” each time.

B2: GAL4 activation domain fused to SNF4p (pSE1111, pACT-SNF4) (other, UniProt P12904 1-322, looked up, not shown: large carriers)
chain: MKPTQDSQEKVSIEQQLAVESIRKFLNSKTSYDVLPVSYRLIVLDTSLLVKKSLNVLLQNSIVSAPLWDSKTSRFAGLLTTTDFINVIQYYFSNPDKFELVDKLQLDGLKDIERALGVDQLDTASIHPSRPLFEACLKMLESRSGRIPLIDQDEETHREIVVSVLTQYRILKFVALNCRETHFLKIPIGDLNIITQDNMKSCQMTTPVIDVIQMLTQGRVSSVPIIDENGYLINVYEAYDVLGLIKGGIYNDLSLSVGEALMRRSDDFEGVYTCTKNDKLSTIMDNIRKARVHRFFVVDDVGRLVGVLTLSDILKYILLGSN
Consider B2, for which the binding result in data set [3] and in data set [1] was “no binding” each time.

B3: GST-tagged Orb6p expressed in fission yeast (pESP-GSTOrb6+) (enzyme, Schizosaccharomyces pombe, UniProt O13310 1-469, looked up, not shown: a dimerising Fc or GST)
chain: MDKNDYLHFERNPSLFPKSTLDKVQKTKKYIEHYYKVAVDHAVERNQRRINLEQRLATERGSEERKNRQLRASGEKESQFLRFRRTRLSLEDFSTIKVIGKGAFGEVRLVQKLDTGKIYAMKSLLKTEMFKRDQLAHVKAERDLLVESDSPWVVSLYYAFQDSLYLYLIMEFLPGGDLMTMLINYDTFSEDVTRFYMAECVLAIADVHRMGYIHRDIKPDNILIDRDGHIKLSDFGLSTGFYKQDQSASYMKPRTGNTVKRGQMVDAIWLTMSSKDKMATWKKNRRVMAYSTVGTPDYIAPEIFLQQGYGQDCDWWSLGAIMFECLIGWPPFCSENSHETYRKIINWRETLTFPNDIHLSIEARDLMDRLMTDSEHRLGRGGAIEIMQHPFFTGIDWDHIRETAAPFIPNLKSITDTHYFPVDELEQVPEQPVTQQPASVDPQTLEQTNLAFLGYTYKKFNYLTMKGAL
notes: also called GST-Orb6p
On to B3, for which the binding result in data set [4] was “no binding”. In addition, in data set [5], the “GST-Orb6p autophosphorylation (in vitro protein kinase activity)” value was “The level of GST-Orb6p autophosphorylation was the same for proteins isolated from control and Bot1p-overexpressing cells”; the “in vitro phosphorylation of Bot1p by Orb6p” value is “Orb6p-associated Bot1p was not phosphorylated in vitro by Orb6p”. In addition, the binding result in data set [6] was “no binding”.

The values above are taken from US20040106173A1, “Bot1: target for antifungal agents” (The University of Miami, priority 2001, published 2004).
